The record followed here is PMC7836013, “Characterization of Formononetin Sulfonation in SULT1A3 Overexpressing HKE293 Cells: Involvement of Multidrug Resistance-Associated Protein 4 in Excretion of Sulfate” (Frontiers in Pharmacology, 2021).

For orientation: Km means the concentration of substrate that gives half-maximal velocity. In general, Vmax refers to the top rate of the reaction or transport when substrate is in excess.

Substrate in data set [1]: COc1ccc(-c2coc3cc(O)ccc3c2=O)cc1
Kind of data set: Formononetin sulfonation enzyme kinetics in HEK-SULT1A3 cell lysate. The format is in vitro ADME, human. The note with it: other: HEK-SULT1A3 cell lysate, Michaelis-Menten, mean ± SD (n = 3); pH 7.4. As for the experimental part: (§1) Enzyme kinetic of formononetin incubated with recombinant human SULT1A3 enzyme (rSULT1A3) was evaluated. The reaction was activated after the coenzyme PAPS (which provides sulfonate group to the substrates) was added. The incubation reaction was conducted in 200 μL potassium phosphate buffer (50 mM, pH 7.4) at 37°C, containing SULT1A3 enzyme (0.1 mg/ml), formononetin (0.16–40 μM), and PAPS (a final concentration of 0.10 mM). After incubation for 120 min, the reaction was terminated by adding 100 μL ice-cold acetonitrile. Then the samples were vortexed and centrifuged at 15,000 g for 15 min. The supernatant was analyzed by HPLC for sulfate quantification. All incubations were performed in triplicate. Preliminary experiments were performed to ensure that the rates of sulfation were determined under linear conditions with respect to incubation time and protein concentration.
The sulfonation rates of formononetin at different concentrations were determined according to the sulfonation assay protocol. The kinetic model Michaelis-Menten (Eq. 1) was fitted to the data of sulfonation rates vs. formononetin concentrations. […] The intrinsic clearance (CLint) was calculated by Vmax/Km.
Quantification of formononetin sulfate was performed using Agilent 1,260 Infinity II HPLC system with a ZORBAX SB-C18 column (4.6 × 250 mm, 5 μm; Agilent). […] The samples were analyzed using a gradient of ammonium acetate (2.5 mM) in water (mobile phase A) vs. acetonitrile (mobile phase B) at a flow rate of 1.0 ml/min. […]
HEK293 cells were stably transfected with the cDNA of Human SULT1A3 enzyme through the lentiviral transduction approach ([Sun et al., 2015]), which were named as HEK-SULT1A3 cells. The transduction efficiency was evaluated by measuring the SULT1A3 protein levels in both control and transfected cells. The enzyme function of HEK-SULT1A3 cells was further determined using sulfonation assay. […] Then, in order to identify the function of HEK-SULT1A3 cells in sulfate generation, formononetin was incubated with the HEK-SULT1A3 cell lysate and enzyme kinetic was determined as described above.

Substrate in data set [2]: COc1ccc(-c2coc3cc(O)ccc3c2=O)cc1
Kind of data set: Formononetin sulfonation enzyme kinetics in recombinant human SULT1A3. It counts as in vitro ADME. The note with it: other: rSULT1A3, Michaelis-Menten, mean ± SD (n = 3); pH 7.4. Here is the method:
as §1
The sulfonation rates of formononetin at different concentrations were determined according to the sulfonation assay protocol. The kinetic model Michaelis-Menten (Eq. 1) was fitted to the data of sulfonation rates vs. formononetin concentrations. Model selection was based on visual inspection of the Eadie-Hofstee plot. […] Model fitting and kinetic parameters evaluation were performed using GraphPad Prism software (5.3 version). V=Vmax·[S]/Km+[S] (1) where Vmax is the maximal velocity and Km is the Michaelis constant. The intrinsic clearance (CLint) was calculated by Vmax/Km.
Quantification of formononetin sulfate was performed using Agilent 1,260 Infinity II HPLC system with a ZORBAX SB-C18 column (4.6 × 250 mm, 5 μm; Agilent). The temperature of the column was set at 40 °C. The samples were analyzed using a gradient of ammonium acetate (2.5 mM) in water (mobile phase A) vs. acetonitrile (mobile phase B) at a flow rate of 1.0 ml/min. The gradient elution condition was 15% B at 0–2.0 min, 15–95% B at 2.0–12 min, 95% B at 12–15 min, and 95–15% B at 15–18 min. The waiting time was 7.0 min at 15% B in order to ensure the column pressure is back to a stable state before the next injection. […]

B1: HEK-SULT1A3 cell lysate (Homo sapiens) (protein)
chain: MELIQDTSRPPLEYVKGVPLIKYFAEALGPLQSFQARPDDLLINTYPKSGTTWVSQILDMIYQGGDLEKCNRAPIYVRVPFLEVNDPGEPSGLETLKDTPPPRLIKSHLPLALLPQTLLDQKVKVVYVARNPKDVAVSYYHFHRMEKAHPEPGTWDSFLEKFMAGEVSYGSWYQHVQEWWELSRTHPVLYLFYEDMKENPKREIQKILEFVGRSLPEETMDFMVQHTSFKEMKKNPMTNYTTVPQELMDHSISPFMRKGMAGDWKTTFTVAQNERFDADYAEKMAGCSLSFRSEL
notes: expressed in transfected cells; cell lysate used
B1: in data set [1], the Michaelis-Menten constant (Km) amounted to 6.17 µM, the Vmax turned out to be 13.94 pmol/min/mg and the Vmax/Km amounted to 2.26 ± 0.42 µL/min/mg.

B2: Recombinant human SULT1A3 enzymes (rSULT1A3) (Homo sapiens) (protein)
chain: MELIQDTSRPPLEYVKGVPLIKYFAEALGPLQSFQARPDDLLINTYPKSGTTWVSQILDMIYQGGDLEKCNRAPIYVRVPFLEVNDPGEPSGLETLKDTPPPRLIKSHLPLALLPQTLLDQKVKVVYVARNPKDVAVSYYHFHRMEKAHPEPGTWDSFLEKFMAGEVSYGSWYQHVQEWWELSRTHPVLYLFYEDMKENPKREIQKILEFVGRSLPEETMDFMVQHTSFKEMKKNPMTNYTTVPQELMDHSISPFMRKGMAGDWKTTFTVAQNERFDADYAEKMAGCSLSFRSEL
notes: purchased Sekisui XenoTech LCC (Kansas, USA)
Consider B2, for which, in data set [2], the Michaelis-Menten constant (Km) was 6.01 ± 0.97 µM, the Vmax is given as 145.30 ± 7.91 pmol/min/mg and the Vmax/Km is 24.18 ± 4.13 µL/min/mg.
